# Results reported in patent US11466286B2, “Methods and compositions for conferring and/or enhancing herbicide tolerance using protoporphyrinogen oxidase or variant thereof” (FarmHannong Co., Ltd., priority 2016, dated 2022).
# System: CyPPO13
# Assay: PPO enzyme activity and IC50 by herbicides, CyPPO13 wild type and variants (MBP-PPO fusion)
# Type: biochemical, Synechococcus sp. JA-3-3Ab
# Details: PPO enzyme activity of CyPPO13 protein, wild type = 100
# Procedure: The enzyme activities of PPO protein and PPO protein variants were examined, and inhibition assay by PPO-inhibiting herbicides was conducted. It was confirmed that the PPO protein has low water-solubility, but in case of being expressed as a fusion protein with MBP (maltose binding protein) (MBP-PPO), the PPO protein is able to be stably expressed as water-soluble form. Therefore, the wild type and variant proteins which were expressed in the form of fusion protein with MBP were used in the present test (refer to FIG. 4).
# In order to express wild type genes and mutant genes of CyPPO10 and CyPPO13 (refer to Example 1 and Example 4), those genes were introduced to pMAL-c2X vector (refer to FIG. 5) respectively, and then cloned to BL21 (DE3) E. coli (CodonPlus).
# The enzyme activity of the purified wild type protein and variant proteins of CyPPO10 and CyPPO13 was measured by the following process.
# At first, a substrate of PPO protein, Protoporphyrinogen IX was synthesized. This process was performed in the space where nitrogen gas is streamed. 6 mg of protoporphyrin IX was dissolved in 20% (v/v) EtOH 20 ml, and stirred under dark condition for 30 minutes. The obtained protoporphyrinogen IX solution was put into a 15 ml screw tube in an amount of 800 and flushed with nitrogen gas for 5 minutes. To this, 1 g of sodium amalgam was added and vigorous shaking was performed for 2 minutes. The lid was open to exhaust hydrogen gas in the tube. Thereafter, the lid was closed and incubated for 3 minutes. The […] was filtered using syringe and cellulose membrane filter. To 600 μl of the obtained […], 2M MOPS [3-(N-morpholino)propanesulfonic acid] was added in an amount of approximately 300 thereby adjusting pH to 8.0. To determine the enzyme activity of PPO protein, a reaction mixture was prepared with the following composition (based on 10 ml): 50 mM Tris-Cl (pH 8.0); 50 mM NaCl; 0.04% (v/v) Tween 20; 40 mM glucose (0.072 g); 5 units glucose oxidase (16.6 mg); and 10 units catalase (1 μl).
# Two hundred microliters (200 μl) of reaction mixture containing a purified PPO protein were placed in 96 well plates, and preincubated for 30 min at room temperature to reduce the oxygen concentration by the reaction of glucose oxidase-catalase. The mineral oil was layered and then the reaction was initiated by adding the substrate, […], to a final concentration of 50 μM. The reaction proceeded at room temperature for 30 min and the fluorescence of protoporphyrin IX was measured using Microplate reader (Sense, Hidex) (excitation: 405 nm; emission: 633 nm). To calculate the PPO enzyme activity, protoporphyrinogen IX solution was kept open in the air to oxidize the solution (overnight). To this, 2.7N HCl was added, and the absorbance at 408 nm was measured. A standard curve was generated using standard protoporphyrin IX, and the PPO activity was measured by calibration of protoporphyrin IX using the standard curve of protoporphyrin IX.
# The final concentration of each herbicide was as follows: […]
row,Molecule,Activity (%)
1,"CyPPO13 A177C + F373T: CyPPO13 (SEQ ID NO: 4) PPO variant (protein, Synthetic CyPPO13) MNPATPEPLNAEVVVIGAGISGLTLAWRLQQGLSARGGSPQAVLLAEASSRVGGCISTQSKDGYRWEEGPNSFTPTPALLNLIAEVGLTDQLVLADAKLPRYIYWEGALLPVPLSPAAALGSRLLSVGGKLRALQGLLGFVPPPPGHEETVRQFFRRQLGSEVAERLVEPFTSGVYCGDPDQLSAVAAFPRVAGLEERYGSLFAGALQALRQRPQPSPAAIQPPPKRGQLGNLRQGLQQLPEALAQKLGDSLRLGWRALQLKRAGELYWVGFETPEGSRWVAARQVVLALPAYEAAALLQELNPPASQLLAEILYPPVAVVALAYPQEALPQPLRGFGHLIPRSQGLRTLGTIWASCLFPERAPQGYHSFLSTLGGATDAALARRRGIPPIPALSPEERAQIAHAELSQVLLTRRAEPVYLGERLWPRAIPQYTLGHRQRIAQVQAHLASQTPGIWVCANYLDGVALGDCVRRAEALAQQLLSQV",80
2,"CyPPO13 R101A: CyPPO13 (SEQ ID NO: 4) PPO variant (protein, Synthetic CyPPO13) MNPATPEPLNAEVVVIGAGISGLTLAWRLQQGLSARGGSPQAVLLAEASSRVGGCISTQSKDGYRWEEGPNSFTPTPALLNLIAEVGLTDQLVLADAKLPAYIYWEGALLPVPLSPAAALGSRLLSVGGKLRALQGLLGFVPPPPGHEETVRQFFRRQLGSEVAERLVEPFTSGVYAGDPDQLSAVAAFPRVAGLEERYGSLFAGALQALRQRPQPSPAAIQPPPKRGQLGNLRQGLQQLPEALAQKLGDSLRLGWRALQLKRAGELYWVGFETPEGSRWVAARQVVLALPAYEAAALLQELNPPASQLLAEILYPPVAVVALAYPQEALPQPLRGFGHLIPRSQGLRTLGTIWASCLFPERAPQGYHSFLSFLGGATDAALARRRGIPPIPALSPEERAQIAHAELSQVLLTRRAEPVYLGERLWPRAIPQYTLGHRQRIAQVQAHLASQTPGIWVCANYLDGVALGDCVRRAEALAQQLLSQV",87
3,"CyPPO13 G194M + F373M: CyPPO13 (SEQ ID NO: 4) PPO variant (protein, Synthetic CyPPO13) MNPATPEPLNAEVVVIGAGISGLTLAWRLQQGLSARGGSPQAVLLAEASSRVGGCISTQSKDGYRWEEGPNSFTPTPALLNLIAEVGLTDQLVLADAKLPRYIYWEGALLPVPLSPAAALGSRLLSVGGKLRALQGLLGFVPPPPGHEETVRQFFRRQLGSEVAERLVEPFTSGVYAGDPDQLSAVAAFPRVAMLEERYGSLFAGALQALRQRPQPSPAAIQPPPKRGQLGNLRQGLQQLPEALAQKLGDSLRLGWRALQLKRAGELYWVGFETPEGSRWVAARQVVLALPAYEAAALLQELNPPASQLLAEILYPPVAVVALAYPQEALPQPLRGFGHLIPRSQGLRTLGTIWASCLFPERAPQGYHSFLSMLGGATDAALARRRGIPPIPALSPEERAQIAHAELSQVLLTRRAEPVYLGERLWPRAIPQYTLGHRQRIAQVQAHLASQTPGIWVCANYLDGVALGDCVRRAEALAQQLLSQV",43
4,"CyPPO13 G194R + F373M: CyPPO13 (SEQ ID NO: 4) PPO variant (protein, Synthetic CyPPO13) MNPATPEPLNAEVVVIGAGISGLTLAWRLQQGLSARGGSPQAVLLAEASSRVGGCISTQSKDGYRWEEGPNSFTPTPALLNLIAEVGLTDQLVLADAKLPRYIYWEGALLPVPLSPAAALGSRLLSVGGKLRALQGLLGFVPPPPGHEETVRQFFRRQLGSEVAERLVEPFTSGVYAGDPDQLSAVAAFPRVARLEERYGSLFAGALQALRQRPQPSPAAIQPPPKRGQLGNLRQGLQQLPEALAQKLGDSLRLGWRALQLKRAGELYWVGFETPEGSRWVAARQVVLALPAYEAAALLQELNPPASQLLAEILYPPVAVVALAYPQEALPQPLRGFGHLIPRSQGLRTLGTIWASCLFPERAPQGYHSFLSMLGGATDAALARRRGIPPIPALSPEERAQIAHAELSQVLLTRRAEPVYLGERLWPRAIPQYTLGHRQRIAQVQAHLASQTPGIWVCANYLDGVALGDCVRRAEALAQQLLSQV",35
5,"CyPPO13 G194K + F373M: CyPPO13 (SEQ ID NO: 4) PPO variant (protein, Synthetic CyPPO13) MNPATPEPLNAEVVVIGAGISGLTLAWRLQQGLSARGGSPQAVLLAEASSRVGGCISTQSKDGYRWEEGPNSFTPTPALLNLIAEVGLTDQLVLADAKLPRYIYWEGALLPVPLSPAAALGSRLLSVGGKLRALQGLLGFVPPPPGHEETVRQFFRRQLGSEVAERLVEPFTSGVYAGDPDQLSAVAAFPRVAKLEERYGSLFAGALQALRQRPQPSPAAIQPPPKRGQLGNLRQGLQQLPEALAQKLGDSLRLGWRALQLKRAGELYWVGFETPEGSRWVAARQVVLALPAYEAAALLQELNPPASQLLAEILYPPVAVVALAYPQEALPQPLRGFGHLIPRSQGLRTLGTIWASCLFPERAPQGYHSFLSMLGGATDAALARRRGIPPIPALSPEERAQIAHAELSQVLLTRRAEPVYLGERLWPRAIPQYTLGHRQRIAQVQAHLASQTPGIWVCANYLDGVALGDCVRRAEALAQQLLSQV",41
6,"CyPPO13 G194E + F373M: CyPPO13 (SEQ ID NO: 4) PPO variant (protein, Synthetic CyPPO13) MNPATPEPLNAEVVVIGAGISGLTLAWRLQQGLSARGGSPQAVLLAEASSRVGGCISTQSKDGYRWEEGPNSFTPTPALLNLIAEVGLTDQLVLADAKLPRYIYWEGALLPVPLSPAAALGSRLLSVGGKLRALQGLLGFVPPPPGHEETVRQFFRRQLGSEVAERLVEPFTSGVYAGDPDQLSAVAAFPRVAELEERYGSLFAGALQALRQRPQPSPAAIQPPPKRGQLGNLRQGLQQLPEALAQKLGDSLRLGWRALQLKRAGELYWVGFETPEGSRWVAARQVVLALPAYEAAALLQELNPPASQLLAEILYPPVAVVALAYPQEALPQPLRGFGHLIPRSQGLRTLGTIWASCLFPERAPQGYHSFLSMLGGATDAALARRRGIPPIPALSPEERAQIAHAELSQVLLTRRAEPVYLGERLWPRAIPQYTLGHRQRIAQVQAHLASQTPGIWVCANYLDGVALGDCVRRAEALAQQLLSQV",32
7,"CyPPO13 A177C + F373V: CyPPO13 (SEQ ID NO: 4) PPO variant (protein, Synthetic CyPPO13) MNPATPEPLNAEVVVIGAGISGLTLAWRLQQGLSARGGSPQAVLLAEASSRVGGCISTQSKDGYRWEEGPNSFTPTPALLNLIAEVGLTDQLVLADAKLPRYIYWEGALLPVPLSPAAALGSRLLSVGGKLRALQGLLGFVPPPPGHEETVRQFFRRQLGSEVAERLVEPFTSGVYCGDPDQLSAVAAFPRVAGLEERYGSLFAGALQALRQRPQPSPAAIQPPPKRGQLGNLRQGLQQLPEALAQKLGDSLRLGWRALQLKRAGELYWVGFETPEGSRWVAARQVVLALPAYEAAALLQELNPPASQLLAEILYPPVAVVALAYPQEALPQPLRGFGHLIPRSQGLRTLGTIWASCLFPERAPQGYHSFLSVLGGATDAALARRRGIPPIPALSPEERAQIAHAELSQVLLTRRAEPVYLGERLWPRAIPQYTLGHRQRIAQVQAHLASQTPGIWVCANYLDGVALGDCVRRAEALAQQLLSQV",56
8,"CyPPO13 G194Q + F373M: CyPPO13 (SEQ ID NO: 4) PPO variant (protein, Synthetic CyPPO13) MNPATPEPLNAEVVVIGAGISGLTLAWRLQQGLSARGGSPQAVLLAEASSRVGGCISTQSKDGYRWEEGPNSFTPTPALLNLIAEVGLTDQLVLADAKLPRYIYWEGALLPVPLSPAAALGSRLLSVGGKLRALQGLLGFVPPPPGHEETVRQFFRRQLGSEVAERLVEPFTSGVYAGDPDQLSAVAAFPRVAQLEERYGSLFAGALQALRQRPQPSPAAIQPPPKRGQLGNLRQGLQQLPEALAQKLGDSLRLGWRALQLKRAGELYWVGFETPEGSRWVAARQVVLALPAYEAAALLQELNPPASQLLAEILYPPVAVVALAYPQEALPQPLRGFGHLIPRSQGLRTLGTIWASCLFPERAPQGYHSFLSMLGGATDAALARRRGIPPIPALSPEERAQIAHAELSQVLLTRRAEPVYLGERLWPRAIPQYTLGHRQRIAQVQAHLASQTPGIWVCANYLDGVALGDCVRRAEALAQQLLSQV",37
